Assay results reported in publication PMC10998612 (Proceedings of the National Academy of Sciences of the …, 2024).

Target: T1, eIF2γ (γ subunit of eIF2, as in the eIF2αγ dimer) (human, UniProt P41091 1-472)
T1 construct: eIF2 gamma subunit (eIF2γ); The γ chain of m6, written alone for the pairs that touch in the crystal structure; also called human eIF2γ; source: E. coli, co-expressed with eIF2α and CDC123 from a multicistronic plasmid, purified as eIF2αγ
Assay: crystal structure; 7.5 mg/mL eIF2αγ combined with PPP1R15A_R3^420-452 at a molar ratio of 1:8 with 0.5 mM GMPPNP and 5 mM MgCl2; sitting drop, 20 °C; 11 to 12% PEG 6000, 0.1 M Tris-HCl pH 8.5; 3.35 Å
Conditions: both partners purified

T1 sequence (P41091 whole entry): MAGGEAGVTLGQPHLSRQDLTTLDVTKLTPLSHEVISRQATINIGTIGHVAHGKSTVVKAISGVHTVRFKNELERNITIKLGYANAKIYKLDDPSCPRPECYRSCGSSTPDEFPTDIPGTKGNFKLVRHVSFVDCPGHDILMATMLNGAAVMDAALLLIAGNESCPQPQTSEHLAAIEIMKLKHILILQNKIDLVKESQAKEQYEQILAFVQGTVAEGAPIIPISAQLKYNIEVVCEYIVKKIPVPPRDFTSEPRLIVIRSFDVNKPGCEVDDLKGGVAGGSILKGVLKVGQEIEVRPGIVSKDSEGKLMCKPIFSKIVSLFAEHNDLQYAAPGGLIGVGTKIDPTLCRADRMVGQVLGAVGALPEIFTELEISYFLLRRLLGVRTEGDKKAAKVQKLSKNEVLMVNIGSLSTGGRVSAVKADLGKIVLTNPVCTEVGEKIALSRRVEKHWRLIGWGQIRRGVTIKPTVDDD

B1: PPP1R15A^420-452 (R3) peptide (peptide)
peptide: not shown
notes: residue numbers based on UniProt O75807; Only residues 426-434 were built in the structure
  binding result: binds
